# Laboratory results reported in US20230272011A1 (AVACTA LIFE SCIENCES, published 2023).
# Legend:
# [1] = molecular target: T1, human PD-L1-Fc (R&D Systems) chimeric protein (human, UniProt Q9NZQ7 19-239); test: binding ELISA on coated human PD-L1 Fc ('Anti-PD-L1 ELISA')
# T1 construct: Bought reagent; also called rhPD-L1-Fc; huPD-L1; Fc part of the bought chimera not given, not described
# Method: Briefly, human PD-L1 Fc (R&D Systems) chimeric protein was coated onto 96 well plates at 0.5 μg/mL in carbonate buffer. After saturation with 5% casein/PBS buffer, plates were washed and a dilution of conjugated AFFIMER® polypeptide or unconjugated control were incubated for 90 minutes. Plates were then washed, a biotinylated polyclonal anti-cystatin A antibody (R&D Systems) added, and the plates incubated for 1 hour. Plates were washed and bound AFFIMER® polypeptide was detected using streptavidin-HRP. After a last washing step, TMB was added and the plate was read at 450 nm.
# cynomolgus serum albumin [2] = molecular target: T2, cynomolgus serum albumin (cynomolgus); test: BLI (Octet), biotinylated albumin on SA sensor, pH 6.0
# T2 construct: also called CSA; cyno serum albumin
# T2 sequence (A2V9Z4 25-608): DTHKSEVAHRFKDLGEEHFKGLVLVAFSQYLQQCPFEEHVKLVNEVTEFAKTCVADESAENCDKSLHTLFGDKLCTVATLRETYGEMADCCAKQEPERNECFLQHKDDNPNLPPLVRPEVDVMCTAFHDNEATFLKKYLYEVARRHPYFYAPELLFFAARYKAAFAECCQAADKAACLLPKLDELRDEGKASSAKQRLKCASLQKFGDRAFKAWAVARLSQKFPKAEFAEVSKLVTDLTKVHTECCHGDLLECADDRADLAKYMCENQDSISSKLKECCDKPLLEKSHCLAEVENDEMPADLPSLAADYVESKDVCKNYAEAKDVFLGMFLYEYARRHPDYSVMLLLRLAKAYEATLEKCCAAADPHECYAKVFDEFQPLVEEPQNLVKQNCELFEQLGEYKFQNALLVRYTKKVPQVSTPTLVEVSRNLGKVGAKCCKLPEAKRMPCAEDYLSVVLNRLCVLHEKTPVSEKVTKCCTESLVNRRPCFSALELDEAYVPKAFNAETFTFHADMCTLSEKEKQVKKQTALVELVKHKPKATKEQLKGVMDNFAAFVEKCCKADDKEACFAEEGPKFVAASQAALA
# Method: (§1) Biotinylated antigen was captured onto SA sensors at 1 μg/ml for 600 seconds in a buffer comprising PBS-T (0.01% Tween 20)+1% casein at either pH 6.0 or 7.4. Association was carried out for 300 seconds and dissociation for 600 seconds, and regeneration was performed using 10 mM glycine pH 1.5 (GE Healthcare) for 3×5 seconds. All steps were carried out at 1000 rpm and 25° C. Purified AFFIMER® polypeptide in two-fold serial dilutions was analyzed at a starting concentration of approximately 10× K_{D value}. Kinetics analyses were carried out using the Octet data analysis software, subtracting the reference sensor (loaded with antigen), aligning the Y-axis to baseline, and using inter-step correction to align association to dissociation. Savitzky-Golay filtering was applied and the data processed. Analysis of the data was carried out with a 1:1 model, global fit, Rₘₐₓ unlinked by sensor.
# human serum albumin [3] = molecular target: T3, human serum albumin (human, UniProt P02768 25-609); test: as above
# T3 construct: mature; Bought protein; biotinylated in the Octet and HTRF assays; also called HSA; HuSA
# Method: as §1
# mouse serum albumin = molecular target: T4, mouse serum albumin (mouse, UniProt P07724 25-608); test: as above
# T4 construct: also called MSA
# T4 sequence (P07724 25-608 limits assumed): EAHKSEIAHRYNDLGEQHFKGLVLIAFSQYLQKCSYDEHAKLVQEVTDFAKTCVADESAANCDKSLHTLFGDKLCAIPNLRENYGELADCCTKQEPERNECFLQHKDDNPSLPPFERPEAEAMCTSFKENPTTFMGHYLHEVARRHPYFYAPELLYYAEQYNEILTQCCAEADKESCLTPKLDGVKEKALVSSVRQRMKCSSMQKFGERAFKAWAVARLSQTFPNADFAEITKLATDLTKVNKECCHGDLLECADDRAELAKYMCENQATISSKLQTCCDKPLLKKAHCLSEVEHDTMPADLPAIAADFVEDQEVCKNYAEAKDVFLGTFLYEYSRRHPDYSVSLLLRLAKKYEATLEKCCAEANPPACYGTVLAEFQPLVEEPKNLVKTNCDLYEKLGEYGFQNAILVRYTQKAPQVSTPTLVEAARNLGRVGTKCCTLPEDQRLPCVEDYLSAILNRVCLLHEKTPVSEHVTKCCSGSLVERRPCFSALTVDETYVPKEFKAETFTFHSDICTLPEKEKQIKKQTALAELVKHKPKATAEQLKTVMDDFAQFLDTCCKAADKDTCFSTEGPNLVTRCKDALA
# Method: as §1
# cynomolgus serum albumin [4] = molecular target: T2, cynomolgus serum albumin; test: BLI (Octet), biotinylated albumin on SA sensor, pH 7.4
# Method: as §1
# human serum albumin [5] = molecular target: T3, human serum albumin; test: as above
# Method: as §1
# human serum albumin [6] = molecular target: T3, human serum albumin; test: SPR (Biacore) response to HSA, pH 7.4
# Text: (§2) Final clones were sequence-verified, produced from E. coli, and affinity purified as described in Example 3.
# human serum albumin [7] = molecular target: T3, human serum albumin; test: SPR (Biacore) binding response to HSA at pH 7.4, Affimer at 50 nM
# Text: as §2
# human serum albumin [8] = molecular target: T3, human serum albumin; test: binding ELISA on coated HSA, pH 7.4
# Method: After saturation with 5% PBS Casein pH 7.5, plates were washed and a dilution of AFFIMER® polypeptides or controls were incubated for 90 minutes. Plates were then washed, and a biotinylated polyclonal antibody anti-cystatin A (R&D Systems) was added for 1 hour. Plates were washed and AFFIMER® polypeptides were detected using streptavidin-HRP. After a last washing step, TMB was added for the development of the experiment and the plates were read at 450 nm.
# human serum albumin [9] = molecular target: T3, human serum albumin; test: SPR (Biacore), immobilised HSA, Affimer analyte
# Method: Affinities for mouse, human, and cynomolgus serum were also measured at pH 7.4 for four (4) AFFIMER® binders using surface plasmon resonance (SPR) (FIG. 5, Table 5). […] A concentration titration of AFFIMER® monomers was run as analyte at a flow rate of 30 μl/min or 60 μl/min. Fc2-1, Fc3-1 and Fc4-1 kinetic data was blank subtracted and fit to a 1:1 Langmuir binding model (BIAcore Evalution software; GE) to calculate KD values. […]
# [10] = molecular target: T1, human PD-L1-Fc (R&D Systems) chimeric …; test: binding ELISA on coated human PD-L1-Fc (table on the sheet is headed 'IC50 (nM)'; the text calls these values EC50)
# Method: Briefly, human PD-L1-Fc (R&D Systems) chimeric protein was coated on 96 well plates at […] in carbonate buffer. After saturation with 5% casein/PBS buffer, the plates were washed and a dilution of AFFIMER® polypeptides or controls were incubated for 90 minutes. Plates were then washed and a biotinylated polyclonal antibody anti-cystatin A (R&D Systems) was added for 1 hour. Plates were washed and AFFIMER® polypeptides were detected using streptavidin-HRP. After a last washing step, TMB was added for the development of the experiment and plates were read at 450 nm.
# T1 sequence (Q9NZQ7 19-239, change not shown): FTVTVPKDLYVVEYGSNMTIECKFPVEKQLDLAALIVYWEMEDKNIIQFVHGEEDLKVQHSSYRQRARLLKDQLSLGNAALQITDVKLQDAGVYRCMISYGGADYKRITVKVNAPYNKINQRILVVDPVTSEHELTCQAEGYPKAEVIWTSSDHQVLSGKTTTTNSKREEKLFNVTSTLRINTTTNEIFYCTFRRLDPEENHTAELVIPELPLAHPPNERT
binder,measurement,setting,value
"AVA04-251 XT14-800 (designed binder, IRDye 800CW conjugated with maleimide chemistry (C-terminal cysteine construct)) MIPRGLSEAKPATPEIQEIVDKVKPQLEEKTNETYGKLEAVQYKTQVLAREGRQDWVLSTNYYIKVRAGDNKYMHLKVFNGPWVPFPHQQLADRVLTGYQVDKNKDDELTGFAEAAAKEAAAKEAAAKEAAAKEAAAKEAAAKMIPRGLSEAKPATPEIQEIVDKVKPQLEEKTNETYGKLEAVQYKTQVLAREGRQDWVLSTNYYIKVRAGDNKYMHLKVFNGPWVPFPHQQLADRVLTGYQVDKNKDDELTGFAEAAAKEAAAKEAAAKEAAAKEAAAKEAAAKMIPRGLSEAKPATPEIQEIVDKVKPQLEEKTNETYGKLEAVQYKTQVLANFFQRRWPGSTNYYIKVRAGDNKYMHLKVFNGPWKFRNTDRGADRVLTGYQVDKNKDDELTGFC",EC50 (read off the curve),[1],~0.02 nM
AVA04-251 XT14-Cys (designed binder) single chain: MIPRGLSEAKPATPEIQEIVDKVKPQLEEKTNETYGKLEAVQYKTQVLAREGRQDWVLSTNYYIKVRAGDNKYMHLKVFNGPWVPFPHQQLADRVLTGYQVDKNKDDELTGFAEAAAKEAAAKEAAAKEAAAKEAAAKEAAAKMIPRGLSEAKPATPEIQEIVDKVKPQLEEKTNETYGKLEAVQYKTQVLAREGRQDWVLSTNYYIKVRAGDNKYMHLKVFNGPWVPFPHQQLADRVLTGYQVDKNKDDELTGFAEAAAKEAAAKEAAAKEAAAKEAAAKEAAAKMIPRGLSEAKPATPEIQEIVDKVKPQLEEKTNETYGKLEAVQYKTQVLANFFQRRWPGSTNYYIKVRAGDNKYMHLKVFNGPWKFRNTDRGADRVLTGYQVDKNKDDELTGFC,EC50 (read off the curve),[1],~0.02 nM
HSA-22 (designed binder) MIPRGLSEAKPATPEIQEIVDKVKPQLEEKTNETYGKLEAVQYKTQVLANWYQQRWPGSTNYYIKVRAGDNKYMHLKVFNGPWHNYGESSGADRVLTGYQVDKNKDDELTGFHHHHHH,Kd,cynomolgus serum albumin [2],146 nM
same,Kd,human serum albumin [3],44.7 nM
same,Kd,mouse serum albumin,334 nM
same,Kd,cynomolgus serum albumin [4],348 nM
same,Kd,human serum albumin [5],152 nM
HSA-41 F51A (designed binder) MIPRGLSEAKPATPEIQEIVDKVKPQLEEKTNETYGKLEAVQYKTQVLANAFQRRWPGSTNYYIKVRAGDNKYMHLKVFNGPWKFRNTDRGADRVLTGYQVDKNKDDELTGFHHHHHH,binding result,human serum albumin [6],no binding (tested: 50 nM)
same,binding response,human serum albumin [7],2.8
HSA-41 R55A (designed binder) MIPRGLSEAKPATPEIQEIVDKVKPQLEEKTNETYGKLEAVQYKTQVLANFFQRAWPGSTNYYIKVRAGDNKYMHLKVFNGPWKFRNTDRGADRVLTGYQVDKNKDDELTGFHHHHHH,binding result,human serum albumin [6],no binding (tested: 50 nM)
same,binding response,human serum albumin [7],2.9
HSA-41 W83A (designed binder) MIPRGLSEAKPATPEIQEIVDKVKPQLEEKTNETYGKLEAVQYKTQVLANFFQRRWPGSTNYYIKVRAGDNKYMHLKVFNGPAKFRNTDRGADRVLTGYQVDKNKDDELTGFHHHHHH,binding result,human serum albumin [6],no binding (tested: 50 nM)
same,binding response,human serum albumin [7],2.9
HSA-41 F52A (designed binder) MIPRGLSEAKPATPEIQEIVDKVKPQLEEKTNETYGKLEAVQYKTQVLANFAQRRWPGSTNYYIKVRAGDNKYMHLKVFNGPWKFRNTDRGADRVLTGYQVDKNKDDELTGFHHHHHH,binding result,human serum albumin [6],no binding (tested: 50 nM)
same,binding response,human serum albumin [7],2.2
HSA-41 W56A (designed binder) MIPRGLSEAKPATPEIQEIVDKVKPQLEEKTNETYGKLEAVQYKTQVLANFFQRRAPGSTNYYIKVRAGDNKYMHLKVFNGPWKFRNTDRGADRVLTGYQVDKNKDDELTGFHHHHHH,binding result,human serum albumin [6],no binding (tested: 50 nM)
same,binding response,human serum albumin [7],2.6
AVA04-251 XT16 (designed binder) MIPRGLSEAKPATPEIQEIVDKVKPQLEEKTNETYGKLEAVQYKTQVLANFFQRRWPGSTNYYIKVRAGDNKYMHLKVFNGPWKFRNTDRGADRVLTGYQVDKNKDDELTGFAEAAAKEAAAKEAAAKEAAAKEAAAKEAAAKMIPRGLSEAKPATPEIQEIVDKVKPQLEEKTNETYGKLEAVQYKTQVLAREGRQDWVLSTNYYIKVRAGDNKYMHLKVFNGPWVPFPHQQLADRVLTGYQVDKNKDDELTGFAEAAAKEAAAKEAAAKEAAAKEAAAKEAAAKMIPRGLSEAKPATPEIQEIVDKVKPQLEEKTNETYGKLEAVQYKTQVLAREGRQDWVLSTNYYIKVRAGDNKYMHLKVFNGPWVPFPHQQLADRVLTGYQVDKNKDDELTGFHHHHHH,EC50,human serum albumin [8],0.059 nM
same,Kd,human serum albumin [9],3.95 nM
same,koff,human serum albumin [9],0.00324 s⁻¹
same,kon,human serum albumin [9],821000 M⁻¹ s⁻¹
same,EC50,[10],0.11 nM
HSA-37 (designed binder) MIPRGLSEAKPATPEIQEIVDKVKPQLEEKTNETYGKLEAVQYKTQVLAGFWASKWPGSTNYYIKVRAGDNKYMHLKVFNGPFTAVSKKDAADRVLTGYQVDKNKDDELTGFHHHHHH,Kd,cynomolgus serum albumin [2],231 nM
same,Kd,human serum albumin [3],136 nM
same,Kd,mouse serum albumin,834 nM
same,Kd,cynomolgus serum albumin [4],221 nM
same,Kd,human serum albumin [5],113 nM
"AVA04-251 BH-800 (designed binder, IRDye 800CW conjugated with maleimide chemistry (C-terminal cysteine construct), E. coli product) MIPRGLSEAKPATPEIQEIVDKVKPQLEEKTNETYGKLEAVQYKTQVLAREGRQDWVLSTNYYIKVRAGDNKYMHLKVFNGPWVPFPHQQLADRVLTGYQVDKNKDDELTGFAEAAAKEAAAKEAAAKEAAAKEAAAKEAAAKMIPRGLSEAKPATPEIQEIVDKVKPQLEEKTNETYGKLEAVQYKTQVLAREGRQDWVLSTNYYIKVRAGDNKYMHLKVFNGPWVPFPHQQLADRVLTGYQVDKNKDDELTGFC",EC50 (read off the curve),[1],~0.04 nM
AVA04-251 BH-Cys (designed binder) single chain: MIPRGLSEAKPATPEIQEIVDKVKPQLEEKTNETYGKLEAVQYKTQVLAREGRQDWVLSTNYYIKVRAGDNKYMHLKVFNGPWVPFPHQQLADRVLTGYQVDKNKDDELTGFAEAAAKEAAAKEAAAKEAAAKEAAAKEAAAKMIPRGLSEAKPATPEIQEIVDKVKPQLEEKTNETYGKLEAVQYKTQVLAREGRQDWVLSTNYYIKVRAGDNKYMHLKVFNGPWVPFPHQQLADRVLTGYQVDKNKDDELTGFC,EC50 (read off the curve),[1],~0.04 nM
